# T1: ARG1 (UniProt P05089 1-322)
# T1 construct: also called NP_000036.2 (+1)
# T1 sequence (looked up): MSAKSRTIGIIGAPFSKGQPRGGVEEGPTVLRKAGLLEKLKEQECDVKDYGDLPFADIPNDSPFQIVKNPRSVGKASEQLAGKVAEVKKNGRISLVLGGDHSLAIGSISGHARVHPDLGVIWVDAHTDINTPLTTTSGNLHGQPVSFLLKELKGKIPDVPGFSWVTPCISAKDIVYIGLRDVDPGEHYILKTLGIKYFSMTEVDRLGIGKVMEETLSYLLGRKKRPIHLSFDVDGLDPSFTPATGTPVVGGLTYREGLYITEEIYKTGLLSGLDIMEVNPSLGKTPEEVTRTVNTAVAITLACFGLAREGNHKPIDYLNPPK
# T2: TECR (human, UniProt Q9NZ01 1-308)
# T2 construct: also called NP_612510.1 (+2)
# T2 sequence (looked up): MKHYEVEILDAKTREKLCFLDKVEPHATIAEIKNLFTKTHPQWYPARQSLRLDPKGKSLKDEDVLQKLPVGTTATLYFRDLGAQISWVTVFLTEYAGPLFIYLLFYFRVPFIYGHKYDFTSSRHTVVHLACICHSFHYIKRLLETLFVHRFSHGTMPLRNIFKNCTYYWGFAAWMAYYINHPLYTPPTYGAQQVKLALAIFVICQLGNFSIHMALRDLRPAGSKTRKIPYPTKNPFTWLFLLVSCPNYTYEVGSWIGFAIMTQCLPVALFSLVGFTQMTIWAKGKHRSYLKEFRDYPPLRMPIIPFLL
# T3: RCN1 (human, UniProt Q15293 30-331)
# T3 construct: also called NP_002892.1
# T3 sequence (looked up): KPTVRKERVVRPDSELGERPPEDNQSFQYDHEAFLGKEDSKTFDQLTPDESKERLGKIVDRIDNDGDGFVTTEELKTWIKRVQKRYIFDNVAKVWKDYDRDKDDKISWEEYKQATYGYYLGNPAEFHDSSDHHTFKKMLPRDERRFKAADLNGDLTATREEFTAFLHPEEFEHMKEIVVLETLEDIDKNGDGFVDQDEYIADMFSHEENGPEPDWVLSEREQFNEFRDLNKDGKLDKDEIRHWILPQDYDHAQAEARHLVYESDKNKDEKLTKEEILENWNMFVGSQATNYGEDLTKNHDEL
# T4: ERP44 (human, UniProt Q9BS26 30-406)
# T4 construct: also called NP_055866.1
# T4 sequence (looked up): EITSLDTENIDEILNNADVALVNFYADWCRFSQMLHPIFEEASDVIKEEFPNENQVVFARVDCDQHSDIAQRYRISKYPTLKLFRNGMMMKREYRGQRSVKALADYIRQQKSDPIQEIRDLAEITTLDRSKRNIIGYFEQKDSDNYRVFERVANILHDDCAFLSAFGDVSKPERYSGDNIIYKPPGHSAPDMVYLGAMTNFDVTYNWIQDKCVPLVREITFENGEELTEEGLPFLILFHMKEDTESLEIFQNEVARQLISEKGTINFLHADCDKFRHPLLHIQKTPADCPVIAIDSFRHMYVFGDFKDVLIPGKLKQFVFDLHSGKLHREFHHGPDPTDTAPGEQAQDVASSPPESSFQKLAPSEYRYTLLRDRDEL
# Assays:
# EIF4G1 = biological target: T5, EIF4G1 (UniProt Q04637-3 1-1559, limits assumed); test: co-IP, anti-FLAG, N-FLAG B3GNT2 cell lysate, mass spectrometry
# T5 construct: also called NP_001278086.1
# Procedure: (§1) Cells were plated in 10-cm cell culture dishes and grown to 60-80% confluency. For each condition, two biological replicates were harvested for co-IP. Cells were washed with PBS and 4 mL of lysis buffer (20 mM HEPES, 1% Triton X-100, 150 mM NaCl, 1 mM EDTA, and 10% glycerol) containing protease inhibitor cocktail was added. Cells were scraped and lysate was incubated at 4° C. under rotary agitation for 1 h. Lysate was centrifuged at 14,000×g for 10 min at 4° C. Supernatant was transferred to a new tube and an aliquot was taken as the input. […] For Western blots, 10 μg/mL Chicken Anti-FLAG (Aves labs ET-DY100) and IgY control (R&D Systems AB-101-C) antibodies were biotinylated (Thermo Fisher Scientific 90407) and added to the respective conditions. Lysates with antibodies were incubated at 4° C. under rotary agitation overnight. For each mL of lysate, 50 μL of Pierce Protein A/G Magnetic Beads (Mass spectrometry; Thermo Fisher Scientific 88803) or Pierce Streptavidin Magnetic Beads (Western blot; Thermo Fisher Scientific 88817) was washed twice with lysis buffer. Lysates with antibodies were added to the beads and incubated at 4° C. under rotary agitation for 4 h. Beads were washed with lysis buffer 3 times and resuspended in lysis buffer for storage.
# (§2) Magnetic beads were resuspended in 100 mM Tris pH 7.8, reduced, alkylated and digested with trypsin at 37° ° C. overnight. This solution was subjected to solid phase extraction to concentrate the peptides and remove unwanted reagents followed by injection onto a Shimadzu HPLC with fraction collector. Eight fractions were collected and after concentration were injected on a Waters NanoAcquity HPLC equipped with a self-packed Aeris 3 μm C18 analytical column 0.075 mm by 20 cm, (Phenomenex). Peptides were eluted using standard reverse-phase gradients. The effluent from the column was analyzed using a Thermo Orbitrap Elite mass spectrometer (nanospray configuration) operated in a data dependent manner for 54 minutes. The resulting fragmentation spectra were correlated against the known database using Proteome Discover 1.4 (Thermo Fisher Scientific).
# CFL1 = biological target: T6, CFL1 (UniProt P23528 2-166); test: as above
# T6 construct: also called NP_005498.1
# Procedure: as §1, §2
# ARG1 = biological target: T1, ARG1; test: as above
# Procedure: as §1, §2
# RPS23 = RPS23 (UniProt P62266 2-143); test: as above
# Procedure: as §1, §2
# RPS16 = RPS16 (UniProt P62249 2-146); test: as above
# Procedure: as §1, §2
# DEFA3 = biological target: T7, DEFA3 (UniProt P59666 65-94, limits assumed); test: as above
# T7 construct: also called NP_005208.1 (+1)
# Procedure: as §1, §2
# RPL34 = RPL34 (human, UniProt P49207 2-117); test: anti-FLAG co-IP from lysate of N-FLAG B3GNT2 cells, mass spectrometry
# TECR = biological target: T2, TECR; test: as above
# RCN1 = biological target: T3, RCN1; test: as above
# ERP44 = biological target: T4, ERP44; test: as above
# T7 sequence (P59666 65-94 limits assumed): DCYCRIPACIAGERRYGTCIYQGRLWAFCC
# T5 sequence (Q04637 41-1599 limits assumed): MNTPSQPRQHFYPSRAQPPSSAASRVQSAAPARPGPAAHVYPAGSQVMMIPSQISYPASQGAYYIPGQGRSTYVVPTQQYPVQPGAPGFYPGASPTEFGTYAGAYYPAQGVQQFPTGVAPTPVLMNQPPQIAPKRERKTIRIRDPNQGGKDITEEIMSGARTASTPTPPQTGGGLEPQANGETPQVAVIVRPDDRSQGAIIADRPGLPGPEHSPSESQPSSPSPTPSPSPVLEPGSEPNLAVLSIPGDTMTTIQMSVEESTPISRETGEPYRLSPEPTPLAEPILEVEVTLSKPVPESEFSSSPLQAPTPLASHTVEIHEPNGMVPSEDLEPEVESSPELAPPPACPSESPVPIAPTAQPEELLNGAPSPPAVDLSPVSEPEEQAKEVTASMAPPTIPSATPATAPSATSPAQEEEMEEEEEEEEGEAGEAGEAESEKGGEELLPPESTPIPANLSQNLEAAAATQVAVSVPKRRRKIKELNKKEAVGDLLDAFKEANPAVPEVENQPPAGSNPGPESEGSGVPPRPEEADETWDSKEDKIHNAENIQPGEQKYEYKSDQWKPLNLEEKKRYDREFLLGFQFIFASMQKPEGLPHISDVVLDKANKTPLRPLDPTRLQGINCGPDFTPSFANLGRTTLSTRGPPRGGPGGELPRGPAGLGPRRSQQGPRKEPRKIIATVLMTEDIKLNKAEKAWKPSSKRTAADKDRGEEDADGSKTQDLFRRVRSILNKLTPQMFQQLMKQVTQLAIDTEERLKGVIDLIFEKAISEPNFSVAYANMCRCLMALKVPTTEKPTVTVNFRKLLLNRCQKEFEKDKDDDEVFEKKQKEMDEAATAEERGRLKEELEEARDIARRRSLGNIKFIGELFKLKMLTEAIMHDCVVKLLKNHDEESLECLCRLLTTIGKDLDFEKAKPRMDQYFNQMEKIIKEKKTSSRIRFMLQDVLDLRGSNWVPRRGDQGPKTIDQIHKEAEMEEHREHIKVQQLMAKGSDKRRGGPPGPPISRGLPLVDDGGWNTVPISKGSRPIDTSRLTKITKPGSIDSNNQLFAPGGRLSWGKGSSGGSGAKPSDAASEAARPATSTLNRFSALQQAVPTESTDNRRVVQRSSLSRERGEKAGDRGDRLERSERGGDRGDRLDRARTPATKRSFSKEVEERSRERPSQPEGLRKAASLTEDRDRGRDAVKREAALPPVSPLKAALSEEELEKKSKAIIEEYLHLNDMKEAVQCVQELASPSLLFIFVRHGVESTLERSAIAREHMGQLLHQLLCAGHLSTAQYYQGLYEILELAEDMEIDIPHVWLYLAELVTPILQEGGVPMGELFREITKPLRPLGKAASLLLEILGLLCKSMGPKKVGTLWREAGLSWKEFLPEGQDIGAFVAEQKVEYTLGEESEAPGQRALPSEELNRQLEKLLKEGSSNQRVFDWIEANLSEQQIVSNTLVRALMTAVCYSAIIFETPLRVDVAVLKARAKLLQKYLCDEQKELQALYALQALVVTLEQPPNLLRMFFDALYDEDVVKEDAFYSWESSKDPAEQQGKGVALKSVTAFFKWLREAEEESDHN
# T6 sequence (P23528 2-166 limits assumed): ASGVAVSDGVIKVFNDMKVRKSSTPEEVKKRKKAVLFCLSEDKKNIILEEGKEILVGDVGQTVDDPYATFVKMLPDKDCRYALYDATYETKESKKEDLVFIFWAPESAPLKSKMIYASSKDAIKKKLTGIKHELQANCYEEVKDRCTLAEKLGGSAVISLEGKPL
Binder,co-IP mass spectrometry count (EIF4G1),co-IP mass spectrometry count (CFL1),co-IP mass spectrometry count (ARG1),co-IP mass spectrometry count (RPS23),co-IP mass spectrometry count (RPS16),co-IP mass spectrometry count (DEFA3),co-IP mass spectrometry count (RPL34),co-IP mass spectrometry count (TECR),co-IP mass spectrometry count (RCN1),co-IP mass spectrometry count (ERP44)
"N-terminal FLAG tagged B3GNT2 (enzyme, human, UniProt Q9NY97 1-397, looked up, Bait of the co-IP; pulled down with mouse anti-FLAG from cell lysate; also called N-FLAG B3GNT2; N-term FLAG; not shown: FLAG tag at the N-terminus) MSVGRRRIKLLGILMMANVFIYFIMEVSKSSSQEKNGKGEVIIPKEKFWKISTPPEAYWNREQEKLNRQYNPILSMLTNQTGEAGRLSNISHLNYCEPDLRVTSVVTGFNNLPDRFKDFLLYLRCRNYSLLIDQPDKCAKKPFLLLAIKSLTPHFARRQAIRESWGQESNAGNQTVVRVFLLGQTPPEDNHPDLSDMLKFESEKHQDILMWNYRDTFFNLSLKEVLFLRWVSTSCPDTEFVFKGDDDVFVNTHHILNYLNSLSKTKAKDLFIGDVIHNAGPHRDKKLKYYIPEVVYSGLYPPYAGGGGFLYSGHLALRLYHITDQVHLYPIDDVYTGMCLQKLGLVPEKHKGFRTFDIEEKNKNNICSYVDLMLVHSRKPQEMIDIWSQLQSAHLKC",2,5,8,9,9,5,–,–,–,–
"N-terminal FLAG tagged B3GNT2 (enzyme, human, UniProt Q9NY97 1-397, looked up, Bait of the co-IP; pulled down from cell lysate with mouse anti-FLAG antibody; also called N-FLAG B3GNT2; N-term FLAG; not shown: N-terminal FLAG tag) MSVGRRRIKLLGILMMANVFIYFIMEVSKSSSQEKNGKGEVIIPKEKFWKISTPPEAYWNREQEKLNRQYNPILSMLTNQTGEAGRLSNISHLNYCEPDLRVTSVVTGFNNLPDRFKDFLLYLRCRNYSLLIDQPDKCAKKPFLLLAIKSLTPHFARRQAIRESWGQESNAGNQTVVRVFLLGQTPPEDNHPDLSDMLKFESEKHQDILMWNYRDTFFNLSLKEVLFLRWVSTSCPDTEFVFKGDDDVFVNTHHILNYLNSLSKTKAKDLFIGDVIHNAGPHRDKKLKYYIPEVVYSGLYPPYAGGGGFLYSGHLALRLYHITDQVHLYPIDDVYTGMCLQKLGLVPEKHKGFRTFDIEEKNKNNICSYVDLMLVHSRKPQEMIDIWSQLQSAHLKC",–,–,–,–,–,–,0,0,0,0

# Source: patent US20240261333A1 (published 2024)
